According to US20220332804A1 (CSL INNOVATION, published 2022):

Assays:
Experiment in all cases: SPR, antibody captured, C2 as analyte;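 also: biacore SPR at 37 °C, anti-C2 mAbs captured via goat anti-human IgG on CM5 chips, double-referenced sensorgrams fit to a 1:1 kinetic or steady-state model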
[1] = biological target: T1, human C2 K485A (human, UniProt P06681 21-752)
T1 sequence: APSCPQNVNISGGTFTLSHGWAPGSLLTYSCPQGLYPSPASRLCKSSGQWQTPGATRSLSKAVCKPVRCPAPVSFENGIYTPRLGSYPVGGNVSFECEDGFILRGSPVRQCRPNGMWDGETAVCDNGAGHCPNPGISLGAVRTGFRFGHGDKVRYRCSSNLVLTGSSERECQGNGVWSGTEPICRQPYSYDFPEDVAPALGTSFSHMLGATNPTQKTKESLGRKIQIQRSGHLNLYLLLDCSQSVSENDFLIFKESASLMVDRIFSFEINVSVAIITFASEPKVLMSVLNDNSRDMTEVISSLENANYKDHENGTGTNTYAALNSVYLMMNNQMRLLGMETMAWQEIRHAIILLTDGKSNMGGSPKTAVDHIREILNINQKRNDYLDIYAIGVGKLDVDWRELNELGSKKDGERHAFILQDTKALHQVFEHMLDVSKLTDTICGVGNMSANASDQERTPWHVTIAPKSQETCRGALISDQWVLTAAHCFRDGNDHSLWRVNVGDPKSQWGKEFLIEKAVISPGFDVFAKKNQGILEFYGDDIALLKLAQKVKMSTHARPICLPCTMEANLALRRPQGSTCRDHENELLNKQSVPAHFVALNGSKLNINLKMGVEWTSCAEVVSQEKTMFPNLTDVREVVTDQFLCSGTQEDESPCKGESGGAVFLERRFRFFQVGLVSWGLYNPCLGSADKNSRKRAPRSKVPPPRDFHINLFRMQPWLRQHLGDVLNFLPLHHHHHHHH

[2] = biological target: T2, human C2 N471A (human, UniProt P06681 21-752)
T2 sequence: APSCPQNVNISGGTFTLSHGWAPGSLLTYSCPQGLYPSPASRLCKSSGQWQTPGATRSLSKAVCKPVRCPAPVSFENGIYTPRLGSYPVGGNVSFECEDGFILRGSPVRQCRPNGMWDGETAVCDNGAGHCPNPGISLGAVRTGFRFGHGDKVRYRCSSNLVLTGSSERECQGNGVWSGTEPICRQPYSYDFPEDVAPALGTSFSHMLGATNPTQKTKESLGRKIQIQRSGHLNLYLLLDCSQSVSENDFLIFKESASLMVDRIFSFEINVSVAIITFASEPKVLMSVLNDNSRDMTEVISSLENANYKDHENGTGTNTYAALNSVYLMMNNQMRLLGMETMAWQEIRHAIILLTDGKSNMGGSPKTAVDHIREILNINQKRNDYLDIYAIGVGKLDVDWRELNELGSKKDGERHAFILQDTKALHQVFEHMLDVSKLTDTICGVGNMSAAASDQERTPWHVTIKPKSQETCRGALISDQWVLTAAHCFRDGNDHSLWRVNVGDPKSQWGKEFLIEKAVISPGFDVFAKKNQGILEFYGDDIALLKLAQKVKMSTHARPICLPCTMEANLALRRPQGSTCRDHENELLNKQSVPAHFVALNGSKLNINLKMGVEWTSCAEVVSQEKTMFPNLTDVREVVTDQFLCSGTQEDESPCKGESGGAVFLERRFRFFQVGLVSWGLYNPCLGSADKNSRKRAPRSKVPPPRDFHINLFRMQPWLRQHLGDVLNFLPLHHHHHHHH

[3] = biological target: T3, human C2 A472S (human, UniProt P06681 21-752)
T3 sequence: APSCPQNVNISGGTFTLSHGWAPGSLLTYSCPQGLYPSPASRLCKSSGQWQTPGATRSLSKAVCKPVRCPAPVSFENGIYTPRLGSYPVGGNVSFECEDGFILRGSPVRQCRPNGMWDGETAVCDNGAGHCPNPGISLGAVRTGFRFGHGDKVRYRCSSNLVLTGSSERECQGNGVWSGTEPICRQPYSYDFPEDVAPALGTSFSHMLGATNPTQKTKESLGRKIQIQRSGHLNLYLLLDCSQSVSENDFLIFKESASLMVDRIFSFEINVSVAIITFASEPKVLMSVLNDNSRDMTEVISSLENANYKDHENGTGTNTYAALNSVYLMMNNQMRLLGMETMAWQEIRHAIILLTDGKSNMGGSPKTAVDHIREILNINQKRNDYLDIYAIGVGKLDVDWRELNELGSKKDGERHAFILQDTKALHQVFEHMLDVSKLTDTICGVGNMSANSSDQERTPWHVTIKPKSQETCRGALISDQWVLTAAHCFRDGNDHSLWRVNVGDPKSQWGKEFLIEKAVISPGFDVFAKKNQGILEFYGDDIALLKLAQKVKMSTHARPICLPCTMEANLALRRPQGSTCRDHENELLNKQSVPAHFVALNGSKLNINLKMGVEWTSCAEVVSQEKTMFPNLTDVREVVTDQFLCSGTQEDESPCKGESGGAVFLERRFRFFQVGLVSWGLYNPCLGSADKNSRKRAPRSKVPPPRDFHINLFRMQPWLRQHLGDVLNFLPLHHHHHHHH

[4] = biological target: T4, human C2 A470S (human, UniProt P06681 21-752)
T4 sequence: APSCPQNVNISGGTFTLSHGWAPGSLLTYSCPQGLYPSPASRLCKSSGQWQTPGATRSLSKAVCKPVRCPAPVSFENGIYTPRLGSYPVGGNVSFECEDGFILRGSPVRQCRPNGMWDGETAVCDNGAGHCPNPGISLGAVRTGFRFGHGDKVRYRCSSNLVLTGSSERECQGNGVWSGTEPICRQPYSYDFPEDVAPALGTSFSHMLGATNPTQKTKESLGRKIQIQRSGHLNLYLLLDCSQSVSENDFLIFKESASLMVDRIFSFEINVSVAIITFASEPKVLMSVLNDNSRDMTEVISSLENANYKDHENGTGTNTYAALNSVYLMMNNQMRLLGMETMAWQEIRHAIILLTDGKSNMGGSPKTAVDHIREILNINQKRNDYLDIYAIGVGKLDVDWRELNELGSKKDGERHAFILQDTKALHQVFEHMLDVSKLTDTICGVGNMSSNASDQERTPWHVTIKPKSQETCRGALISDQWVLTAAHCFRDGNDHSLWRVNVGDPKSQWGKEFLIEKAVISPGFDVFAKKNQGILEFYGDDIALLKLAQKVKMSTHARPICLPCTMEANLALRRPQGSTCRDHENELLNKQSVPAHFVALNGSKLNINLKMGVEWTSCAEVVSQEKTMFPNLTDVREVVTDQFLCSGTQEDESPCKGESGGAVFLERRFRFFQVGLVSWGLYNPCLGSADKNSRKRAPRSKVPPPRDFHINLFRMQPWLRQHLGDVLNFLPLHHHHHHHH

B1: RF16-226 (antibody, human IgG4 S228P, lambda)
heavy: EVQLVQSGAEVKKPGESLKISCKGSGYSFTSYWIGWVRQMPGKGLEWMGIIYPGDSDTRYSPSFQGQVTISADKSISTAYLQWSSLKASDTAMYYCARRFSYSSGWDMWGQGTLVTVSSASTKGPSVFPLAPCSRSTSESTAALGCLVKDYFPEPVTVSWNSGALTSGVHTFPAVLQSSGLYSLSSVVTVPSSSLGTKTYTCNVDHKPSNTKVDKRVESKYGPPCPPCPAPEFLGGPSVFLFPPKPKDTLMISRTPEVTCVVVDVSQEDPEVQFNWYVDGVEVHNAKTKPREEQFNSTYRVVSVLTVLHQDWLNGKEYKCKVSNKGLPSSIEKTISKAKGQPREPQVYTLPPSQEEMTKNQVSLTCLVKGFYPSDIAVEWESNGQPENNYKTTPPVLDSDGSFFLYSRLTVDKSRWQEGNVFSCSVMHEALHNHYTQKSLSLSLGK
light: SYELTQPPSVSVSPGQTARITCSGDALTSKYVAWYQQKSGLAPLLVIYEDTRRPSGIPAKFSGSSSGSVATLTISGAHGDDEADYYCYSTDASGHQRVFGGGTKLTVLSQPKAAPSVTLFPPSSEELQANKATLVCLISDFYPGAVTVAWKADGSPVKAGVETTKPSKQSNNKYAASSYLSLTPEQWKSHRSYSCQVTHEGSTVEKTVAPTECS
notes: pH-dependent anti-C2 antibody from a phage display library; also called WT
[1]
  Kd: 12.5 nM
[2]
  Kd: 9.7 nM
[3]
  Kd: 53 nM
[4]
  Kd: 7.8 nM
